Source: the supplement of paper PMC9233669
Fewer inactive variants are shown than the library holds.

How the values were obtained:
[1] = test system: biotinyl-Val-oxazolone; assay: self-aminoacylation, catalytic enhancement (BVO) (fold over background); higher = more active; k-Seq, kA / k0A0; sequences stand for … in GGGAAUGGAUCCACAUCUACGAAUUC…UUCACUGCAGACUUGACGAAGCUG
How it was run: (§1)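 Mutagenized RNA pools (0.43 μM; 21-nt variable region) were treated with 2–1250 μM of each biotinyl-aminoacyl-oxazolone. Conditions were 50 μL HEPES/NaCl/KCl/MgCl2/CaCl2 buffer, 5% acetonitrile, pH 6.9–7.0, room temperature, 90 minutes. Catalytic enhancement, the median kA relative to the uncatalyzed rate, was derived from streptavidin capture, qPCR and Illumina sequencing.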

[2] = test system: biotinyl-Phe-oxazolone; assay: self-aminoacylation, catalytic enhancement (BFO) (fold over background); higher = more active; k-Seq, kA / k0A0; sequences stand for … in GGGAAUGGAUCCACAUCUACGAAUUC…UUCACUGCAGACUUGACGAAGCUG
How it was run: as §1

[3] = test system: biotinyl-Leu-oxazolone; assay: self-aminoacylation, catalytic enhancement (BLO) (fold over background); higher = more active; k-Seq, kA / k0A0; sequences stand for … in GGGAAUGGAUCCACAUCUACGAAUUC…UUCACUGCAGACUUGACGAAGCUG
How it was run: as §1

[4] = test system: biotinyl-Trp-oxazolone; assay: self-aminoacylation, catalytic enhancement (BWO) (fold over background); higher = more active; k-Seq, kA / k0A0; sequences stand for … in GGGAAUGGAUCCACAUCUACGAAUUC…UUCACUGCAGACUUGACGAAGCUG
How it was run: as §1

[5] = test system: biotinyl-Ile-oxazolone; assay: self-aminoacylation, catalytic enhancement (BIO) (fold over background); higher = more active; k-Seq, kA / k0A0; sequences stand for … in GGGAAUGGAUCCACAUCUACGAAUUC…UUCACUGCAGACUUGACGAAGCUG
How it was run: as §1

[6] = test system: biotinyl-Met-oxazolone; assay: self-aminoacylation, catalytic enhancement (BMO) (fold over background); higher = more active; k-Seq, kA / k0A0; sequences stand for … in GGGAAUGGAUCCACAUCUACGAAUUC…UUCACUGCAGACUUGACGAAGCUG
How it was run: as §1

Sequence | self-aminoacylation [1] | self-aminoacylation [2] | self-aminoacylation [3] | self-aminoacylation [4] | self-aminoacylation [5] | self-aminoacylation [6]
CCACACGUCAAGCAAUCAGUC [Fam1B.1 aminoacylation ribozyme variant] | 0.88 | 0.738 | 0.713 | 0.482 | 0.647 | 0.665
CCACACGUCAAGCAAUCGAUC [Fam1B.1 aminoacylation ribozyme variant] | 0.921 | 0.631 | 0.62 | 0.645 | 0.667 | 0.657
CCACACGUCAAGCAAUCGGAC [Fam1B.1 aminoacylation ribozyme variant] | 2.03 | 0.667 | 1.36 | 0.681 | 1.53 | 1.14
CCACACGUCAAGCAAUCGGUG [Fam1B.1 aminoacylation ribozyme variant] | 2.78 | 9.7 | 1.59 | 2.35 | 1.63 | 2.02
CCACACUAAAAGCAAUCGGUC [Fam1B.1 aminoacylation ribozyme variant] | 0.959 | 0.761 | 0.677 | 0.746 | 0.867 | 0.688
CCACACUACAAGCAAUCGGUG [Fam1B.1 aminoacylation ribozyme variant] | 2.85 | 31.8 | 6.9 | 5.03 | 3.62 | 4.92
CCACACUACAAGCAAUCUGUC [Fam1B.1 aminoacylation ribozyme variant] | 0.566 | 0.747 | 0.49 | 0.353 | 0.496 | 0.271
CCACACUACAAGCGAUCGGUC [Fam1B.1 aminoacylation ribozyme variant] | 1.29 | 0.866 | 1.24 | 1.03 | 1.09 | 0.977
CCACACUACAAGGAAUCGGUC [Fam1B.1 aminoacylation ribozyme variant] | 1.03 | 0.823 | 0.947 | 0.681 | 1.01 | 0.84
CCACACUACAUGCAAUCGGUC [Fam1B.1 aminoacylation ribozyme variant] | 0.888 | 0.877 | 0.762 | 0.812 | 0.737 | 0.743
CCACACUCCAAGCAAUCGGGC [Fam1B.1 aminoacylation ribozyme variant] | 2.08 | 1.07 | 1.65 | 2.55 | 2.01 | 1.31
CCACACUCCAAGCAAUCGGUA [Fam1B.1 aminoacylation ribozyme variant] | 1.34 | 0.936 | 1.27 | 1.25 | 1.15 | 0.699
CCACACUCCAAGCAAUCGGUC [Fam1B.1 aminoacylation ribozyme variant] | 1.08 | 2.6 | 0.855 | 1.59 | 0.984 | 0.789
CCACACUCCAAGGAAUCGGUC [Fam1B.1 aminoacylation ribozyme variant] | 1.31 | 1.46 | 1.08 | 1.34 | 1.35 | 1.32
CCACACUGCAAGCAAUCGGCC [Fam1B.1 aminoacylation ribozyme variant] | 5.56 | 20.5 | 1.99 | 3.9 | 3.29 | 2.93
CCACACUGCAAGCAAUCGGUG [Fam1B.1 aminoacylation ribozyme variant] | 3.12 | 31.5 | 7.11 | 5.82 | 3.4 | 4.9
CCACACUGCAAGGAAUCGGUC [Fam1B.1 aminoacylation ribozyme variant] | 1.32 | 3.84 | 1.3 | 1.51 | 1.39 | 1.35
CCACACUGCCAGCAAUCGGUC [Fam1B.1 aminoacylation ribozyme variant] | 1.58 | 2.23 | 1.47 | 1.39 | 1.5 | 1.36
CCACACUGUAAGCAAUCGGUC [Fam1B.1 aminoacylation ribozyme variant] | 1.14 | 0.898 | 1.09 | 1.16 | 1.06 | 0.953
CCACACUUAAAGAAAUCGGUC [Fam1B.1 aminoacylation ribozyme variant] | 0.785 | 0.562 | 0.749 | 0.679 | 0.754 | 0.734
CCACACUUAAAGCAAUCCGUC [Fam1B.1 aminoacylation ribozyme variant] | 1.17 | 0.452 | 0.838 | 0.523 | 0.998 | 0.879
CCACACUUAAAGCCAUCGGUC [Fam1B.1 aminoacylation ribozyme variant] | 1.11 | 0.617 | 0.913 | 1.06 | 0.992 | 0.801
CCACACUUCAAACAAUCGCUC [Fam1B.1 aminoacylation ribozyme variant] | 1.33 | 1.32 | 1.29 | 0.765 | 1.1 | 0.869
CCACACUUCAAACAAUCGGCC [Fam1B.1 aminoacylation ribozyme variant] | 2.19 | 8.32 | 1.61 | 7.9 | 1.77 | 1.96
CCACACUUCAAACAAUCGGUA [Fam1B.1 aminoacylation ribozyme variant] | 1.02 | 1.62 | 0.734 | 1.47 | 0.873 | 0.947
CCACACUUCAAACAUUCGGUC [Fam1B.1 aminoacylation ribozyme variant] | 1.4 | 0.837 | 1.45 | 1.32 | 1.49 | 1.47

Sequence | self-aminoacylation [1] | self-aminoacylation [2] | self-aminoacylation [3] | self-aminoacylation [4] | self-aminoacylation [5] | self-aminoacylation [6]
CCACACUUCAACCAAUCGGGC [Fam1B.1 aminoacylation ribozyme variant] | 2.93 | 3.78 | 2.24 | 2.09 | 1.91 | 1.75
CCACACUUCAACCAAUCGGUA [Fam1B.1 aminoacylation ribozyme variant] | 1.1 | 1.08 | 0.859 | 1.63 | 1.1 | 1.56
CCACACUUCAACCAAUCGGUC [Fam1B.1 aminoacylation ribozyme variant] | 1.5 | 60.5 | 2.17 | 35.2 | 1.38 | 1.38
CCACACUUCAACCACUCGGUC [Fam1B.1 aminoacylation ribozyme variant] | 1.28 | 0.849 | 1.1 | 0.978 | 1.18 | 1.24
CCACACUUCAACCCAUCGGUC [Fam1B.1 aminoacylation ribozyme variant] | 1.72 | 0.791 | 1.24 | 1.04 | 1.34 | 1.11
CCACACUUCAAGAAAUCUGUC [Fam1B.1 aminoacylation ribozyme variant] | 0.402 | 0.421 | 0.292 | 0.349 | 0.306 | 0.349
CCACACUUCAAGACAUCGGUC [Fam1B.1 aminoacylation ribozyme variant] | 0.896 | 0.815 | 0.879 | 0.762 | 1 | 0.914
CCACACUUCAAGCAAACGAUC [Fam1B.1 aminoacylation ribozyme variant] | 0.589 | 0.772 | 0.422 | 0.585 | 0.513 | 0.44
CCACACUUCAAGCAACCAGUC [Fam1B.1 aminoacylation ribozyme variant] | 0.941 | 1.26 | 0.725 | 0.79 | 1.08 | 1.04
CCACACUUCAAGCAACCCGUC [Fam1B.1 aminoacylation ribozyme variant] | 1.17 | 0.819 | 0.763 | 0.843 | 1.14 | 0.779
CCACACUUCAAGCAACCGGUG [Fam1B.1 aminoacylation ribozyme variant] | 4 | 33.9 | 7.08 | 6.05 | 3.92 | 5.05
CCACACUUCAAGCAAGCGGAC [Fam1B.1 aminoacylation ribozyme variant] | 1.15 | 0.42 | 0.794 | 0.604 | 0.959 | 1.16
CCACACUUCAAGCAAGCGGGC [Fam1B.1 aminoacylation ribozyme variant] | 2.29 | 6.38 | 1.59 | 2.67 | 1.61 | 2.41
CCACACUUCAAGCAAGUGGUC [Fam1B.1 aminoacylation ribozyme variant] | 0.611 | 0.777 | 0.449 | 0.536 | 0.441 | 0.43
CCACACUUCAAGCAAUAGUUC [Fam1B.1 aminoacylation ribozyme variant] | 0.644 | 1.21 | 0.55 | 0.431 | 0.703 | 0.501
CCACACUUCAAGCAAUCCGAC [Fam1B.1 aminoacylation ribozyme variant] | 0.703 | 0.729 | 0.586 | 0.28 | 0.612 | 0.516
CCACACUUCAAGCAAUCCGGC [Fam1B.1 aminoacylation ribozyme variant] | 3.66 | 1.71 | 2.88 | 2.1 | 3.02 | 3.54
CCACACUUCAAGCAAUCCGUA [Fam1B.1 aminoacylation ribozyme variant] | 1.04 | 0.597 | 0.927 | 0.837 | 0.876 | 0.668
CCACACUUCAAGCAAUCCGUG [Fam1B.1 aminoacylation ribozyme variant] | 2.47 | 26.9 | 5.32 | 2.78 | 2.79 | 3.21
CCACACUUCAAGCAAUCGCGC [Fam1B.1 aminoacylation ribozyme variant] | 3.35 | 6.7 | 3.04 | 2.44 | 2.08 | 2.16
CCACACUUCAAGCAAUCGGCA [Fam1B.1 aminoacylation ribozyme variant] | 1.37 | 1.07 | 1.59 | 1.28 | 1.18 | 0.777
CCACACUUCAAGCAAUCGGGA [Fam1B.1 aminoacylation ribozyme variant] | 1.8 | 1.46 | 1.04 | 1.87 | 1.55 | 1.51
CCACACUUCAAGCAAUCGGGG [Fam1B.1 aminoacylation ribozyme variant] | 2.19 | 1.38 | 2.28 | 2.3 | 1.71 | 1.21
CCACACUUCAAGCAAUCGGGU [Fam1B.1 aminoacylation ribozyme variant] | 1.8 | 0.915 | 1.87 | 1.06 | 1.51 | 1.41
CCACACUUCAAGCAAUCGGUG [Fam1B.1 aminoacylation ribozyme variant] | 3.68 | 17.1 | 7.2 | 5.45 | 3.68 | 5.19
